According to patent publication US5985608:

Target: endogenous β-actin of the bovine neutrophil plasma membrane (bovine) (UniProt P60712)
Assay: control of the co-immunoprecipitation, protein A-agarose beads

“nonspecific rabbit IgG (polyclonal serum or antibody)” was tested, and the β-actin co-precipitated relative to the anti-pepA immunoprecipitate was less than 5%.
